Experimental data: patent publication US20110318339A1 (FABRUS, published 2011)

Experiments:
[1] = target: T1, rHuman Notch-1/Fc Chimera, CF (Cat# 3647-TK) (human, UniProt P46531 19-526); assay: Multispot ECL; Fab 930 nM
T1 construct: Bought from R&D Systems
Protocol: (§1) An 150 μl aliquot of 1% Bovine Serum Albumin (BSA) in Tris-buffered Saline Tween (TBST) was added to each well and allowed to incubate for 30 min at 20° C. followed by washing and tap drying to completely remove any residual solution. Subsequently, a 12.5 μl aliquot of 1% BSA TBST was added to each well followed by the addition of a 12.5 μl aliquot of a purified Fab. The plate was sealed and incubated for 1 hour at 20° C. with shaking.
(§2) Detection antibodies were prepared by individually conjugating both goat anti-human Kappa light chain polyclonal antibody (K3502-1MG, Sigma-Aldrich) and goat anti-human Lambda light chain polyclonal antibody (L1645-1 mL, Sigma-Aldrich) with Ruthenium (II) tris-bipyridine-(4-methylsulfone)-N-hydroxysuccinimide (SULFO-TAG NHS-ester, Meso Scale Discovery) according to the manufacturer's instructions. TAG-detection antibody at 25 μl was added to each well and allowed to incubate for 1 hour at 20° C. with shaking. Finally, 15 μl of Read Buffer P with Surfactant (Cat # R92PC-1, Meso Scale Discovery) was added to each well. The electrochemiluminescence was measured using a Sector Imager 2400 (Meso Scale Discovery). Data was analyzed by comparing the ECL signals for an antigen to the blank of each well. A signal to blank ratio of 4 or more was considered a “Hit” Fab.
(§3) To confirm a “Hit” from the initial Multispot ECL screening, a Fab concentration dependent titration was carried out to determine the Fab-antigen binding affinity.

[2] = target: T2, Recombinant Human DLL4 (Cat# 1506-D4/CF) (human, UniProt Q9NR61 27-529); assay: Multispot ECL; Fab 930 nM
T2 construct: Bought from R&D Systems; also called rHuman DLL4; hDLL4
Protocol: as §1, §2, §3

[3] = target: T3, rHuman Erythropoietin R/Fc Chimera, CF (Cat# 963-ER) (human, UniProt P19235 25-250); assay: Multispot ECL; Fab 930 nM
T3 construct: Bought from R&D Systems; also called EPO R/Fc; Epo R/Fc chimera
T3 sequence (looked up): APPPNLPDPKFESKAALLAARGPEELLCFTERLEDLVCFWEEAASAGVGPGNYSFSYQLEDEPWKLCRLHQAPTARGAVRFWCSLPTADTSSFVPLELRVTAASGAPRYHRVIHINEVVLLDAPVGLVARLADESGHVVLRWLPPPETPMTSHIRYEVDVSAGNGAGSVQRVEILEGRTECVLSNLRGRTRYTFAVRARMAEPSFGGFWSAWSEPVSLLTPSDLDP
Protocol: as §1, §2, §3

[4] = target: T4, rHuman ErbB2/Fc Chimera, CF (Cat# 1129-ER) (human, UniProt P04626 23-652); assay: Multispot ECL; Fab 930 nM
T4 construct: Bought from R&D Systems; also called human epidermal growth factor 2 receptor (ErbB2)
Protocol: as §1, §2, §3

[5] = target: T5, rHuman IGF-1 sR, (IGF-1 sR), CF (Cat# 391-GR) (human, UniProt P08069 31-932); assay: Multispot ECL; Fab 930 nM
T5 construct: Bought from R&D Systems; also called insulin-like growth factor-1 soluble receptor
Protocol: as §1, §2, §3

[6] = target: T6, rHuman CD44/Fc Chimera, CF (Cat# 3660-CD) (human, UniProt P16070 21-220); assay: Multispot ECL; Fab 930 nM
T6 construct: Bought from R&D Systems
Protocol: as §1, §2, §3

[7] = target: T1, rHuman Notch-1/Fc Chimera, CF (Cat# …); assay: Multispot ECL; Fab 14.5 nM
Protocol: as §1, §2, §3

[8] = target: T2, Recombinant Human DLL4 (Cat# 1506-D4/CF); assay: Multispot ECL; Fab 14.5 nM
Protocol: as §1, §2, §3

[9] = target: T3, rHuman Erythropoietin R/Fc Chimera, CF …; assay: Multispot ECL; Fab 14.5 nM
Protocol: as §1, §2, §3

[10] = target: T4, rHuman ErbB2/Fc Chimera, CF (Cat# …); assay: Multispot ECL; Fab 14.5 nM
Protocol: as §1, §2, §3

[11] = target: T5, rHuman IGF-1 sR, (IGF-1 sR), CF (Cat# …); assay: Multispot ECL; Fab 14.5 nM
Protocol: as §1, §2, §3

[12] = target: T6, rHuman CD44/Fc Chimera, CF (Cat# …); assay: Multispot ECL; Fab 14.5 nM
Protocol: as §1, §2, §3

[13] = target: T1, rHuman Notch-1/Fc Chimera, CF (Cat# …); assay: Multispot ECL; Fab 58.1 nM
Protocol: as §1, §2, §3

[14] = target: T2, Recombinant Human DLL4 (Cat# 1506-D4/CF); assay: Multispot ECL; Fab 58.1 nM
Protocol: as §1, §2, §3

[15] = target: T3, rHuman Erythropoietin R/Fc Chimera, CF …; assay: Multispot ECL; Fab 58.1 nM
Protocol: as §1, §2, §3

[16] = target: T4, rHuman ErbB2/Fc Chimera, CF (Cat# …); assay: Multispot ECL; Fab 58.1 nM
Protocol: as §1, §2, §3

[17] = target: T5, rHuman IGF-1 sR, (IGF-1 sR), CF (Cat# …); assay: Multispot ECL; Fab 58.1 nM
Protocol: as §1, §2, §3

[18] = target: T6, rHuman CD44/Fc Chimera, CF (Cat# …); assay: Multispot ECL; Fab 58.1 nM
Protocol: as §1, §2, §3

[19] = target: T1, rHuman Notch-1/Fc Chimera, CF (Cat# …); assay: Multispot ECL; Fab 232.5 nM
Protocol: as §1, §2, §3

[20] = target: T2, Recombinant Human DLL4 (Cat# 1506-D4/CF); assay: Multispot ECL; Fab 232.5 nM
Protocol: as §1, §2, §3

[21] = target: T3, rHuman Erythropoietin R/Fc Chimera, CF …; assay: Multispot ECL; Fab 232.5 nM
Protocol: as §1, §2, §3

[22] = target: T4, rHuman ErbB2/Fc Chimera, CF (Cat# …); assay: Multispot ECL; Fab 232.5 nM
Protocol: as §1, §2, §3

[23] = target: T5, rHuman IGF-1 sR, (IGF-1 sR), CF (Cat# …); assay: Multispot ECL; Fab 232.5 nM
Protocol: as §1, §2, §3

[24] = target: T6, rHuman CD44/Fc Chimera, CF (Cat# …); assay: Multispot ECL; Fab 232.5 nM
Protocol: as §1, §2, §3

B1: Fab VH1-46_IGHD6-13*01_IGHJ4*01 & O1_IGKJ1*01 (Fab, V domains shown)
VH: QVQLVQSGAEVKKPGASVKVSCKASGYTFTSYYMHWVRQAPGQGLEWMGIINPSGGSTSYAQKFQGRVTMTRDTSTSTVYMELSSLRSEDTAVYYCAREGYSSSWYDYFDYWGQGTLVTVSS
VL: DIVMTQTPLSLPVTPGEPASISCRSSQSLLDSDDGNTYLDWYLQKPGQSPQLLIYTLSYRASGVPDRFSGSGSGTDFTLKISRVEAEDVGVYYCMQRIEFPSWTFGQGTKVEIKR
notes: Germline-derived Fab from E. coli: VH in Plasmid A (CH1, His6 and Flag tags), VL in Plasmid C (kappa CL)
Work on B1 yielded an ECL signal [1] of 2210, an ECL signal [2] of 8160 and an ECL signal [3] of 3010. It also gave an ECL signal [4] of 2220, an ECL signal [5] of 1920 and an ECL signal [6] of 1920. For the same binder, the ECL signal [7] was 317, the ECL signal [8] was 1150 and the ECL signal [9] was 660. For the same binder, the ECL signal [10] was 274, the ECL signal [11] was 234 and the ECL signal [12] was 212. For the same binder, the ECL signal [13] was 388, the ECL signal [14] was 1880 and the ECL signal [15] was 829. For the same binder, the ECL signal [16] was 322, the ECL signal [17] was 343 and the ECL signal [18] was 375. It also gave an ECL signal [19] of 778, an ECL signal [20] of 3590 and an ECL signal [21] of 1470. For the same binder, the ECL signal [22] was 779, the ECL signal [23] was 569 and the ECL signal [24] was 607.
